Substitutions are numbered along the chain they refer to.

We go through 19 molecules from patent publication US20030068675, “Position dependent recognition of GNN nucleotide triplets by zinc fingers” (published 2003).

What all share (experiment): EMSA
Conditions in all cases: tags: MBP fusion

For one series, the target named is ZFP SBS#251 (synthetic). On the procedure:
(§1) Affinity is measured by titrating purified protein against a fixed amount of labeled double-stranded oligonucleotide target. The target typically comprises the natural binding site sequence flanked by the 3 bp found in the natural sequence and additional, constant flanking sequences. The natural binding site is typically 9 bp for a three-finger protein and 2×9 bp +intervening bases for a six finger ZFP. […] For the assay the target is added at a concentration of 1 nM or lower (the actual concentration is kept at least 10-fold lower than the expected dissociation constant), purified ZFPs are added at various concentrations, and the reaction is allowed to equilibrate for at least 45 min. In addition the reaction mixture also contains 10 mM Tris (pH 7.5), 100 mM KCl, 1 mM MgCl2, 0.1 mM ZnCl2, 5 mM DTT, 10% glycerol, 0.02% BSA. (NB: in earlier assays poly d(IC) was also added at […].) The equilibrated reactions are loaded onto a 10% polyacrylamide gel, which has been pre-run for 45 min in Tris/glycine buffer, then bound and unbound labeled target is resolved by electrophoresis at 150V.

The next series has as its target T1, ZFP SBS#375 (synthetic).
T1 chain: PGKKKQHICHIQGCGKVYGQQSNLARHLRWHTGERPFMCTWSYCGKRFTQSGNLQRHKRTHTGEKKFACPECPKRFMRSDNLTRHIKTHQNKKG
On the procedure: as §1

Another series concerns the target ZFP SBS#352 (synthetic). On the procedure: as §1
In the next series the target is ZFP SBS#367 (synthetic). The protocol: as §1
For a further series, the target named is T2, ZFP SBS#381 (synthetic).
T2 chain: T1 chain with Q20R, Q21S, S22D, N23E, A25T, G52S, N53D, R78Q, D80G, N81D
On the procedure:
as §1

Another series has as its target T3, ZFP SBS#297 (synthetic).
T3 chain: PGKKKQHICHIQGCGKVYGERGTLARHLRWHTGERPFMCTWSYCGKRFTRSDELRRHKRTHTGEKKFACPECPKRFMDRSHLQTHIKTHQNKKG
On the procedure:
as §1

The next series concerns the target ZFP SBS#365 (synthetic). On the procedure:
as §1

The next series has as its target ZFP SBS#319 (synthetic, UniProt P08047). On the procedure:
as §1

A further series addresses ZFP SBS#320 (synthetic). On the procedure: as §1
For a further series, the target named is T4, ZFP SBS#350 (synthetic).
T4 chain: T3 chain with E20T, R21S, T23H, A25T, E53N, R55T, R79C, S80R, H81D, Q83T
On the procedure:
as §1

A further series has as its target T5, ZFP SBS#293 (synthetic).
T5 chain: T1 chain with Q20D, Q21R, N23H, A25T, Q50E, S51R, G52H, N53S, R56T, N81A
The protocol:
as §1

A further series concerns the target T6, ZFP SBS#355 (synthetic).
T6 chain: T3 chain with R21K, G22A, T23N, A25T, E53N, R55T, D78Q, H81N, Q83V, T84R
The protocol: as §1

Another series deals with ZFP SBS#354 (synthetic). On the procedure:
as §1

A further series addresses T7, ZFP SBS#377 (synthetic).
T7 chain: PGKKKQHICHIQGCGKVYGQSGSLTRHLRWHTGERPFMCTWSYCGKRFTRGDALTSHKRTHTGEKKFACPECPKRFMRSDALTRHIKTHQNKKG
The protocol:
as §1

For another series, the target named is ZFP SBS#361 (synthetic). On the procedure:
as §1

In a further series the target is ZFP SBS#363 (synthetic). On the procedure:
as §1

The next series concerns the target ZFP SBS#358 (synthetic). The protocol: as §1
The target in a further series is T8, ZFP SBS#307 (synthetic).
T8 chain: T1 chain with Q20R, Q21S, S22D, N23E, A25R, R78Q, D80G, T83S
The protocol: as §1

Another series addresses ZFP SBS#323 (synthetic). On the procedure: as §1
The target in the next series is ZFP SBS#324 (synthetic). On the procedure: as §1
The next series concerns the target ZFP SBS#321 (synthetic). The protocol:
as §1

A further series has as its target ZFP SBS#302 (synthetic). On the procedure:
as §1

For the next series, the target named is ZFP SBS#299 (synthetic). The protocol:
as §1

The next series addresses T9, ZFP SBS#298 (synthetic).
T9 chain: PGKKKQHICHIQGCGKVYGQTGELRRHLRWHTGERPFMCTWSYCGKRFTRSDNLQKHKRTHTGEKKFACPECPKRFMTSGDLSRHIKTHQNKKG
On the procedure:
as §1

The next series deals with ZFP SBS#303 (synthetic). The protocol:
as §1

The next series concerns the target T10, ZFP SBS#300 (synthetic, UniProt P08047).
T10 chain: T9 chain with G22A, E23D, K56R, T78Q, G80S
On the procedure: as §1

The next series concerns the target ZFP SBS#305 (synthetic). On the procedure: as §1
In another series the target is T11, ZFP SBS#304 (synthetic).
T11 chain: T9 chain with G22A, E23D, R25T, K56T, T78Q, G80S
The protocol:
as §1

The target in a further series is T12, ZFP SBS#306 (synthetic).
T12 chain: T9 chain with G22A, E23S, R25T, K56T, T78Q, G80S
The protocol: as §1

The target in the next series is T13, ZFP SBS#301 (synthetic).
T13 chain: T9 chain with T21S, G22A, E23D, K56T, T78Q, G80S
On the procedure: as §1

For a further series, the target named is ZFP SBS#314 (synthetic). On the procedure:
as §1

A further series has as its target T14, ZFP SBS#312 (synthetic).
T14 chain: T3 chain with R50N, S51R, E53N, R55Q, D78Q, R79S, S80G, Q83S, T84R
On the procedure:
as §1

The target of the next series is T15, ZFP SBS#311 (synthetic).
T15 chain: T9 chain with Q20D, T21R, G22S, E23T, R25T, R50N, S51R, K56R, T78Q, D81H
The protocol: as §1

A further series addresses ZFP SBS#309 (synthetic). The protocol:
as §1

Another series addresses ZFP SBS#315 (synthetic). The protocol: as §1
In a further series the target is T16, ZFP SBS#316 (synthetic).
T16 chain: T3 chain with R50Q, S51R, E53N, R55Q, D78Q, R79S, S80G, Q83S, T84R
The protocol:
as §1

The next series has as its target T17, ZFP SBS#318 (synthetic).
T17 chain: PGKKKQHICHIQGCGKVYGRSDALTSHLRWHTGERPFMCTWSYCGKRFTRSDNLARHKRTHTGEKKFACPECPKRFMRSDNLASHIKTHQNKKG
On the procedure:
as §1

ZFP SBS#319, sequence (P08047 other isoform, or with tags, fused parts or gaps): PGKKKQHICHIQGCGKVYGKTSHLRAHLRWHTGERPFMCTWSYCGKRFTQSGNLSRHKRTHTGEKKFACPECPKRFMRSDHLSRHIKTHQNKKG
ZFP SBS#365 (synthetic), sequence (chain, as listed by the source): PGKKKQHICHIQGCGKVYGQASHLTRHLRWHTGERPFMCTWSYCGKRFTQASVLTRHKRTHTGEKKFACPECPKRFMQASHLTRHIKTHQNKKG
ZFP SBS#323 (synthetic), sequence (chain, as listed by the source): as the sequence (P08047 other isoform, or with tags, fused parts or gaps) above, with K20T, H23N, A26R, N53H, S55Q, R78D, S79R, S83T counted along it
ZFP SBS#324 (synthetic), sequence (chain, as listed by the source): as the sequence (P08047 other isoform, or with tags, fused parts or gaps) above, with K20T, H23N, A26R, N53H, S55Q, R78D, S79R, S83T counted along it
ZFP SBS#354 (synthetic), sequence (chain, as listed by the source): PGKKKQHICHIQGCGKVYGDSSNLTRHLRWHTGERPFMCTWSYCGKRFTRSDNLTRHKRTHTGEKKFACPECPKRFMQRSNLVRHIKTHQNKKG
ZFP SBS#358 (synthetic), sequence (chain, as listed by the source): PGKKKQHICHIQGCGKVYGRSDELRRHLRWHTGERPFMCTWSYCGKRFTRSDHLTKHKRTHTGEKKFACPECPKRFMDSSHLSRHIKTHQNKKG
ZFP SBS#309 (synthetic), sequence (chain, as listed by the source): as the sequence (P08047 other isoform, or with tags, fused parts or gaps) above, with K20E, T21R, H23D, A26R, G52S, S55Q, R78Q, D80G counted along it
ZFP SBS#361 (synthetic), sequence (chain, as listed by the source): as the sequence (P08047 other isoform, or with tags, fused parts or gaps) above, with K20R, T21S, S22D, R25T, A26R, G52S, N53A, S55T, S83T counted along it
ZFP SBS#314 (synthetic), sequence (chain, as listed by the source): as the sequence (P08047 other isoform, or with tags, fused parts or gaps) above, with K20D, T21R, H23S, R25T, A26R, G52S, S55Q, R78Q, D80G counted along it
ZFP SBS#321 (synthetic), sequence (chain, as listed by the source): as the sequence (P08047 other isoform, or with tags, fused parts or gaps) above, with K20T, H23N, A26R, N53H, S55Q, R78D, S79R, D80S, S83T counted along it
ZFP SBS#305 (synthetic), sequence (chain, as listed by the source): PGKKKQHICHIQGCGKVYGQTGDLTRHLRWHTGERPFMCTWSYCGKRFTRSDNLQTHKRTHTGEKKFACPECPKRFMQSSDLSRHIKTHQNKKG
ZFP SBS#320 (synthetic), sequence (chain, as listed by the source): as the sequence (P08047 other isoform, or with tags, fused parts or gaps) above, with K20R, T21S, S22D, R25T, A26R counted along it
ZFP SBS#303 (synthetic), sequence (chain, as listed by the source): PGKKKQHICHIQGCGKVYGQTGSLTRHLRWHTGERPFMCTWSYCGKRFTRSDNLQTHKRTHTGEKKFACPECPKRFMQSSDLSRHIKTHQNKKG
ZFP SBS#299 (synthetic), sequence (chain, as listed by the source): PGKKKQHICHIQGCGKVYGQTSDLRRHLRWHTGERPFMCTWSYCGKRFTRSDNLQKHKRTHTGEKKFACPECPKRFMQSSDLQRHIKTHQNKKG
ZFP SBS#302 (synthetic), sequence (chain, as listed by the source): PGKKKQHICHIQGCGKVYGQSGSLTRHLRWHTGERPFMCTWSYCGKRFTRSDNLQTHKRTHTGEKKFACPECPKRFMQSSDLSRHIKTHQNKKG
ZFP SBS#352 (synthetic), sequence (chain, as listed by the source): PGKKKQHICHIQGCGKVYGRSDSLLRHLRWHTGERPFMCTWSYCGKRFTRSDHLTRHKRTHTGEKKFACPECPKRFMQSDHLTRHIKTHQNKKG

B1: GCGGAGGCG (dsDNA)
DNA 1: GCGGAGGCG
DNA 2: CGCCTCCGC
B1 gave a Kd with ZFP SBS#251 of 0.0275 µM.

B2: GAGGAAGAT (dsDNA)
DNA 1: GAGGAAGAT
DNA 2: ATCTTCCTC
For B2, the Kd with ZFP SBS#375 worked out at 0.085 µM.

B3: GGAGGGGTG (dsDNA)
DNA 1: GGAGGGGTG
DNA 2: CACCCCTCC
In turn, B3 showed a Kd in the series with ZFP SBS#352 of 0.026 µM. In other words, the double-digit nanomolar range.

B4: GGGGGCGGG (dsDNA)
DNA 1: GGGGGCGGG
DNA 2: CCCGCCCCC
For B4, in the series with ZFP SBS#367, the Kd turned out to be 0.06 µM.

B5: GCAGCTGCGC (dsDNA)
DNA 1: GCAGCTGCGC
DNA 2: GCGCAGCTGC
The molecule B5 registered a Kd with ZFP SBS#381 of 0.0015 µM.

B6: TGCGCGGCC (dsDNA)
DNA 1: TGCGCGGCC
DNA 2: GGCCGCGCA
B6 gave a Kd with ZFP SBS#297 of 0.5 µM.

B7: GGTGCTGGT (dsDNA)
DNA 1: GGTGCTGGT
DNA 2: ACCAGCACC
In the series with ZFP SBS#365, B7 registered a Kd of 0.6 µM.

B8: GGGGAAGGG (dsDNA)
DNA 1: GGGGAAGGG
DNA 2: CCCTTCCCC
For B8, the equilibrium dissociation constant (Kd) came out at 0.125 µM in the series with ZFP SBS#319 and 0.005 µM in the series with ZFP SBS#320.

B9: TCCGAGGGT (dsDNA)
DNA 1: TCCGAGGGT
DNA 2: ACCCTCGGA
B9: the affinity with ZFP SBS#350, expressed as Kd, was 0.332 µM.

B10: GTGTGCGGC (dsDNA)
DNA 1: GTGTGCGGC
DNA 2: GCCGCACAC
In the case of B10, in the series with ZFP SBS#293, the Kd turned out to be 0.32 µM.

B11: GAAGAGGAC (dsDNA)
DNA 1: GAAGAGGAC
DNA 2: GTCCTCTTC
In the case of B11, the Kd in the series with ZFP SBS#355 was 0.02 µM; with ZFP SBS#354 it was 0.028 µM.

B12: GTGTTGGCAG (dsDNA)
DNA 1: GTGTTGGCAG
DNA 2: CTGCCAACAC
In turn, B12 came in with a Kd in the series with ZFP SBS#377 of 0.089 µM. This counts as double-digit nanomolar.

B13: GGGTTTGGG (dsDNA)
DNA 1: GGGTTTGGG
DNA 2: CCCAAACCC
With B13, the Kd with ZFP SBS#361 came out at 0.13 µM; in the series with ZFP SBS#363, 0.2 µM.

B14: GGCTGGGCG (dsDNA)
DNA 1: GGCTGGGCG
DNA 2: CGCCCAGCC
B14 gave a dissociation constant Kd in the series with ZFP SBS#358 of 0.225 µM.

B15: GAAGAAGCG (dsDNA)
DNA 1: GAAGAAGCG
DNA 2: CGCTTCTTC
Regarding B15, binding in the series with ZFP SBS#307 was put at a Kd of 0.0505 µM.

B16: GGCGGAGAT (dsDNA)
DNA 1: GGCGGAGAT
DNA 2: ATCTCCGCC
Regarding B16, the Kd came to 0.6 µM in the series with ZFP SBS#323, 0.2 µM with ZFP SBS#324 and 0.2 µM with ZFP SBS#321.

B17: GCTTAGGCA (dsDNA)
DNA 1: GCTTAGGCA
DNA 2: TGCCTAAGC
Consider B17, for which the Kd came to 0.075 µM with ZFP SBS#302; 4 µM with ZFP SBS#299; 4 µM with ZFP SBS#298; 0.135 µM with ZFP SBS#303; 0.4 µM in the series with ZFP SBS#300; 0.23 µM in the series with ZFP SBS#305. Also, the figures for the Kd with ZFP SBS#304, with ZFP SBS#306 and with ZFP SBS#301 were 0.23 µM, 0.28 µM and 0.35 µM, respectively.

B18: GGAGATGCC (dsDNA)
DNA 1: GGAGATGCC
DNA 2: GGCATCTCC
As for B18, the Kd is 0.118 µM in the series with ZFP SBS#314; 2 µM in the series with ZFP SBS#312; 0.17 µM with ZFP SBS#311; 4 µM in the series with ZFP SBS#309; 0.265 µM with ZFP SBS#315; 3 µM in the series with ZFP SBS#316.

B19: TAGGAGATGC (dsDNA)
DNA 1: TAGGAGATGC
DNA 2: GCATCTCCTA
In turn, B19 yielded a Kd with ZFP SBS#318 of 0.1 µM.
